{
  "source": "patent US20080131908A1",
  "about": "(Genentech, published 2008)",
  "key": {"[1]": {"biological_target": "human Notch3 (full-length) (human) (UniProt Q9UM47)", "sequence (Q9UM47 40-2321 A2223V limits assumed)": "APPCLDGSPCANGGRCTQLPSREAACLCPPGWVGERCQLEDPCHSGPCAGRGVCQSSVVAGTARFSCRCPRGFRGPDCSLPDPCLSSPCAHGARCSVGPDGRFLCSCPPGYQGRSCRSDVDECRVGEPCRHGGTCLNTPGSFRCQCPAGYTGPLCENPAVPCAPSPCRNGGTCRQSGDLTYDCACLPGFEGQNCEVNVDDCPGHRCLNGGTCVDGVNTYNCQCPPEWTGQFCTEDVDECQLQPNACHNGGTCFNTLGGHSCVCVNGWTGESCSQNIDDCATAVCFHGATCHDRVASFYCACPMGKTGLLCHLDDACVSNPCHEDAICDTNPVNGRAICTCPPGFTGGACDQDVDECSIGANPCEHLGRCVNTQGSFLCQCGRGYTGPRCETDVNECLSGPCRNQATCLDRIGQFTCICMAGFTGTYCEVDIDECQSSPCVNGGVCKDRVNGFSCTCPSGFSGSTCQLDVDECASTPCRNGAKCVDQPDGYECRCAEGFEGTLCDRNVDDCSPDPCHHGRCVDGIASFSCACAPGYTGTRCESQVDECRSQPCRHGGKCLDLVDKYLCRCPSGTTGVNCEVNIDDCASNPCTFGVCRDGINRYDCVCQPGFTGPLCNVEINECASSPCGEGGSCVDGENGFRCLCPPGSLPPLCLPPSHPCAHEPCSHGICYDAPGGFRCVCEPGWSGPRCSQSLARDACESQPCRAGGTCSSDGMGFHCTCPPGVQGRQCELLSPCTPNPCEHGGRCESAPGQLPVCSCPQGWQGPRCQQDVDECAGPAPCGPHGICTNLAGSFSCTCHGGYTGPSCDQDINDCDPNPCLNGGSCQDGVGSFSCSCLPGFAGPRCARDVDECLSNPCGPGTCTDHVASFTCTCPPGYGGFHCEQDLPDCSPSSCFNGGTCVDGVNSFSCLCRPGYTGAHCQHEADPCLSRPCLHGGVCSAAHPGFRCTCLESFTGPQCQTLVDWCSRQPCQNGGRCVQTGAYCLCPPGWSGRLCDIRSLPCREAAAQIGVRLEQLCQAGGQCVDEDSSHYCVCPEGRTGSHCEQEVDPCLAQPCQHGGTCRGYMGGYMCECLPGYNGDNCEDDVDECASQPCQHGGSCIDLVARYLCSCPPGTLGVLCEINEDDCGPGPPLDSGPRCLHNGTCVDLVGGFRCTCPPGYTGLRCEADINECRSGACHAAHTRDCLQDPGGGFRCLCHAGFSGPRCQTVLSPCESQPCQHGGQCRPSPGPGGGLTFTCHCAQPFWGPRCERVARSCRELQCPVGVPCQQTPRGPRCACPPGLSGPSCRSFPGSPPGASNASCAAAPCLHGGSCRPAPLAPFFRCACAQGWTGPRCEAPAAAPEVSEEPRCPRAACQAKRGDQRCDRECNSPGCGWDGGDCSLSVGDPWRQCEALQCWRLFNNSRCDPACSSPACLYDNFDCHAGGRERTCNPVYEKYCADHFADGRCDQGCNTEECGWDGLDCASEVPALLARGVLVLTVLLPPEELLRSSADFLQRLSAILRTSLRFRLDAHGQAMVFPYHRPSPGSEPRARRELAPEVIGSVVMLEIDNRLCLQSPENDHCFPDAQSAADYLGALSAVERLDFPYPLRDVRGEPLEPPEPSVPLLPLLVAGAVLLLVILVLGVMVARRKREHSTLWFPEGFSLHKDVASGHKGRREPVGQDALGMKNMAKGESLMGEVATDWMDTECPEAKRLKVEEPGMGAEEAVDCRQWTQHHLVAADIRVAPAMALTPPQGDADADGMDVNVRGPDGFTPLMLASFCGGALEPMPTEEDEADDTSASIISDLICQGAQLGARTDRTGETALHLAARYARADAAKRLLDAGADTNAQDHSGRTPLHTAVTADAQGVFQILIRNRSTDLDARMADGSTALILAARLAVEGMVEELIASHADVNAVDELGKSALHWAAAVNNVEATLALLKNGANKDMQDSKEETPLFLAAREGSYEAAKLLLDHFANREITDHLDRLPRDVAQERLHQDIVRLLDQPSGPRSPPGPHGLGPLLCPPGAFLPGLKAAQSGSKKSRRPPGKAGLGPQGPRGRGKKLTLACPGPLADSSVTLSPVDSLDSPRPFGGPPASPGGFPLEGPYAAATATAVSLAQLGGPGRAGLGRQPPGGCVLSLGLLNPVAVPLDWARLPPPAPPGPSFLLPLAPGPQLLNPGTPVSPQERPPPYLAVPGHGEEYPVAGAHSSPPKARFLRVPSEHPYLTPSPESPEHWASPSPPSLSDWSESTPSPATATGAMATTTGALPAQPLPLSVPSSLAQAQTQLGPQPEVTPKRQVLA", "experiment": "FACS on Sup-T1 cells (native Notch3)"}, "[2]": {"biological_target": "human Notch3 (full-length) (human) (UniProt Q9UM47)", "experiment": "FACS on 293T cells transiently transfected with Notch3/Hygromycin"}, "[3]": {"biological_target": "Notch3-EGF/Fc fusion protein (human) (UniProt Q9UM47)", "sequence (Q9UM47 43-1377)": "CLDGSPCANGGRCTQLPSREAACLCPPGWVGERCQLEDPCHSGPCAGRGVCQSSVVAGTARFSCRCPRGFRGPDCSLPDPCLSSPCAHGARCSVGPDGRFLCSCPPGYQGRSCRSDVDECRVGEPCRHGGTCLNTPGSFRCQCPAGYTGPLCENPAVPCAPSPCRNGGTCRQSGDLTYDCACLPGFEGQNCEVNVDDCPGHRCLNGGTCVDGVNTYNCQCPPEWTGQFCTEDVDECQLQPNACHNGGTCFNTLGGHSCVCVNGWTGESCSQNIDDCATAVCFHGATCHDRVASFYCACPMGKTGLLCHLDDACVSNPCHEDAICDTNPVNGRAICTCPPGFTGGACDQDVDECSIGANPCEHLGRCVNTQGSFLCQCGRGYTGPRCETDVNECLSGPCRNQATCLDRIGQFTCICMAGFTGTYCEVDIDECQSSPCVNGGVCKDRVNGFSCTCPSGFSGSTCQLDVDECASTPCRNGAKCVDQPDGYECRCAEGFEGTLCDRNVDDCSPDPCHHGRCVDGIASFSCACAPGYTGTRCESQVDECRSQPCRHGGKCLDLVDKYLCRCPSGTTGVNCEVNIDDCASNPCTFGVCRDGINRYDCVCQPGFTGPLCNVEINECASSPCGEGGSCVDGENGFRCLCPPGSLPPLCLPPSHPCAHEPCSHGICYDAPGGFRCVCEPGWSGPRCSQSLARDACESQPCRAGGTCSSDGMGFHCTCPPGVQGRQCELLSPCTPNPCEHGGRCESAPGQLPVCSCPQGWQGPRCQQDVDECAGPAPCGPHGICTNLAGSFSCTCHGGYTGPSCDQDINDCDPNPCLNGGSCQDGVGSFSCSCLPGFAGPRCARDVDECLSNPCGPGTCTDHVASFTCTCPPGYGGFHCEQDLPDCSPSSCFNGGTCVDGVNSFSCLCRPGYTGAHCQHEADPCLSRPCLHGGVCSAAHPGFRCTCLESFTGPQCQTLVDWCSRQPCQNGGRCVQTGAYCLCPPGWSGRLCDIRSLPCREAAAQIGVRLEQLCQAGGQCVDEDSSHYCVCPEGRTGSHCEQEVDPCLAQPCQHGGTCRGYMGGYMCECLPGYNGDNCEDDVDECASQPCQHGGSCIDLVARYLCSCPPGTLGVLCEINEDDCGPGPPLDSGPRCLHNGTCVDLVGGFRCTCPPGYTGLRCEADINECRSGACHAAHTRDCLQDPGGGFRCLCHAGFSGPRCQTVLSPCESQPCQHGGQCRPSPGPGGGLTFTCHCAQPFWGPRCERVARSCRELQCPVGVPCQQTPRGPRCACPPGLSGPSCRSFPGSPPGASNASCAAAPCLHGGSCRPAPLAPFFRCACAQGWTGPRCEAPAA", "experiment": "ELISA, hybridoma supernatant on coated Notch3-EGF/Fc (0.1 ug/ml); control beside 255A-71"}, "[4]": {"biological_target": "Notch3-EGF/Fc fusion protein (human) (UniProt Q9UM47)", "experiment": "ELISA, hybridoma supernatant on coated Notch3-EGF/Fc (0.1 ug/ml); control beside 255A-77"}, "[5]": {"biological_target": "T1, Notch3-LD/Fc fusion protein (human, UniProt Q9UM47 1378-1640)", "T1 construct": "A signal peptide was linked to the N-terminus (not identified, left out); not described; also called Notch3/Fc fusion protein", "T1 sequence": "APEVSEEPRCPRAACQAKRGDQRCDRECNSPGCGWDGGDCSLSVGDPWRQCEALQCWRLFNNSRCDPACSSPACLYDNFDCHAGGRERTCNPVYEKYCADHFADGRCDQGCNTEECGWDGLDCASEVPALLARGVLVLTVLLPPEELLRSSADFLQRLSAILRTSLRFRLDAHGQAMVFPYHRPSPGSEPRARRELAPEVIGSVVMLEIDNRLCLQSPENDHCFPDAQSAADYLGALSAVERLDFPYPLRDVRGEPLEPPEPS", "experiment": "ELISA, hybridoma supernatant on coated Notch3-LD/Fc (0.1 ug/ml); control beside 256A-13"}, "Notch3-LDTM/V5": {"biological_target": "T2, Notch3-LDTM/V5 (human, UniProt Q9UM47 1378-1664, limits assumed)", "T2 construct": "not shown: V5 tag at the C-terminus", "T2 sequence": "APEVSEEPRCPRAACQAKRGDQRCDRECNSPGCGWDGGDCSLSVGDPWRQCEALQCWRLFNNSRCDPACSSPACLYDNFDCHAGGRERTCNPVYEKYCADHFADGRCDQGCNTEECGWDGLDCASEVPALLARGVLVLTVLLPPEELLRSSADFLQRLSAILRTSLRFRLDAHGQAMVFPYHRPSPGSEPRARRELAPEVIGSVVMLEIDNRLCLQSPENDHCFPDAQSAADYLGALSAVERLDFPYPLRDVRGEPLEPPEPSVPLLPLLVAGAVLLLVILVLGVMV", "experiment": "cell-based FMAT assay on cells expressing Notch3-LDTM", "method": "Cell-based antibody-binding was assessed using FMAT™ 8100 HTS System (Applied Biosystems, Foster City, Calif.) and protocol provided by the manufacturer with some modification. Cell lines expressing Notch3 were seeded in 96-well plates at a density of 30,000-50,000 cells per well. After 20-24 hours, anti-Notch3 mAbs and 1×PBS reaction buffer were added to the wells and incubated for one hour at 37° C. Cy-5-conjugated anti-mouse IgG antibody was added to the wells after removal of primary antibodies. The fluorescent intensity of bound antibody was measured by FMAT™ 8100 HTS System."}, "[6]": {"biological_target": "T1, Notch3-LD/Fc fusion protein", "experiment": "Western blot, denaturing conditions", "method": "Western blot was performed to assess anti-Notch3 mAbs binding activity to Notch3 under denaturing condition. For this purpose, purified Notch3-EGF/Fc and Notch3-LD/Fc fusion proteins were combined with protein loading buffer (BioRad, Hercules, Calif.). Protein samples were also prepared from the transiently or stably transfected cells described in Example 1, which were harvested from culture dishes, washed once with phosphate buffered saline (PBS), resuspended in deionized water, and heated at 100° C. for 10 minutes after adding equal volume of 2× protein sample loading buffer (BioRad, Hercules, Calif.). All samples were separated by electrophoresis in a 4-15% gradient SDS-PAGE (BioRad, Hercules, Calif.). The proteins were transferred from gel to PVDF membrane (BioRad, Hercules, Calif.) and anti-Notch3 mAbs were applied to the Western blot membrane as the primary detection antibody. An HRP-conjugated secondary antibody was used for detection and the signal generated using a Supersignal Chemiluminescent Substrate (Pierce, Rockford, Ill.) as described above."}},
  "data": [
    {"molecule": "Control IgG1 (antibody)", "values": [
      {"measurement": "mean fluorescence intensity", "setting": "[1]", "result": 24.5, "unit": "MFI"},
      {"measurement": "mean fluorescence intensity", "setting": "[2]", "result": 24.2, "unit": "MFI"}
    ]},
    {"molecule": "Control hybridoma supernatant (antibody)", "values": [
      {"measurement": "ELISA OD at 450 nm (mean)", "setting": "[3]", "result": 0.01, "unit": "OD"},
      {"measurement": "ELISA OD at 450 nm (mean)", "setting": "[4]", "result": 0.019, "unit": "OD"},
      {"measurement": "ELISA OD at 450 nm (mean)", "setting": "[5]", "result": 0.019, "unit": "OD"}
    ]},
    {"molecule": "anti-Notch 3 monoclonal antibody mAb 255A-71 (antibody, V domains shown, Mouse hybridoma mAb raised against Notch3-EGF/Fc) VH: DVQLQESGPGLVKPSQSLSLTCSVTGYSITSGYYWNWIRQFPGNKLEWMGFISYDGSNNYNPSLKNRISITRDTSKNQFFLKLNSVTTEDTATFYCATLYYDYDGNYFDYWGQGTTLTVSS VL: CDIQMTQTTSSLSASLGDRVTISCRTSQDISNYLNWYQQKPDGTVKLLIYYTSRLHSGVPSRFSGSGSGTDYSLTISNLEQEDIATYFCQQGNALPLTFGPGTKLELKR", "values": [
      {"measurement": "binding result", "setting": "Notch3-LDTM/V5", "result": "no binding"},
      {"measurement": "binding result", "setting": "[6]", "result": "no binding"}
    ]},
    {"molecule": "anti-Notch 3 monoclonal antibody mAb 255A-77 (antibody, V domains shown, Mouse hybridoma mAb raised against Notch3-EGF/Fc) VH: QVQLQQSGDDLVKPGASVKLSCKASGYTFTSYWINWIKQRPGQGLEWIGHIGPGSGSTYYNEIFKGKATLTVDTSSSTAYIQLSSLSSEDSAVYFCVLTRYFYAMDYWGQGTSVTVSS VL: DIVMTQSPSSLAVTAGEKVTMRCKSSQSLLWSVNQNNYLSWYQQKQGQPPKLLIYGASIRESWVPDRFTGSGSGTDFTLTISNVHVEDLAVYYCQHNHGSFLPLTFGAGTKLELKR", "values": [
      {"measurement": "binding result", "setting": "Notch3-LDTM/V5", "result": "no binding"},
      {"measurement": "binding result", "setting": "[6]", "result": "no binding"}
    ]}
  ]
}
